Literature values as cited in PMC3058932.

Experiments:
[1] = target: GRP receptor (Homo sapiens) (UniProt P30550); assay: PC-3 membrane binding
[2] = target: GRP receptor (Rattus norvegicus) (UniProt P52500); assay: rat brain membrane binding
Sequence of UniProt P52500 (P52500 whole entry): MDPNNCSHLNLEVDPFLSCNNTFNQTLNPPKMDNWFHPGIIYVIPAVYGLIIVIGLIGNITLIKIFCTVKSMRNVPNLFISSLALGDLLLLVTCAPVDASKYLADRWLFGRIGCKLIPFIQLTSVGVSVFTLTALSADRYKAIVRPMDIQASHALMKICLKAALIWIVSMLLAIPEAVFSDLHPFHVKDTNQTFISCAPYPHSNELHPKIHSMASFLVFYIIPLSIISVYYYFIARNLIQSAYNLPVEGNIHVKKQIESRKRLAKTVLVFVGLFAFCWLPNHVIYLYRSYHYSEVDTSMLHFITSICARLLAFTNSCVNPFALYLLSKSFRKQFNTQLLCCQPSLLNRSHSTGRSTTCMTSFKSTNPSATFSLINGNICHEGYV

Sequence of UniProt P30550 (P30550 whole entry): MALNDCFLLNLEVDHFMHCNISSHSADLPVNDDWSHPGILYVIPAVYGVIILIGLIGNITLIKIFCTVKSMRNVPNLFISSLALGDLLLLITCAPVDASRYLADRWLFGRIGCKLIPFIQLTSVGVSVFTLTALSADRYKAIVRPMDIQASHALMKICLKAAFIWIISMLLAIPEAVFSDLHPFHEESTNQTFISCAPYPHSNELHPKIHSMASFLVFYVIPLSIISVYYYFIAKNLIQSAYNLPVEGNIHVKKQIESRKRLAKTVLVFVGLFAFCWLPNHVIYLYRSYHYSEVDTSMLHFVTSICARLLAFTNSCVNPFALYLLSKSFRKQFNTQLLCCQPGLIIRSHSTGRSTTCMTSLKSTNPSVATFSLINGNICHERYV

Ki [1]: 1.7 nM
Ki [2]: 4.3 nM
Substance: bombesin (from UniProt P84214)
